This note sets out measurements from patent US20240002434A1 (ICHNOS SCIENCES, published 2024).

Values joined by “and” are separate entries in the source; they are usually repeats but may differ in a detail not shown here. Equal entries are not always repeated.

Test [1] concerns the target T1, human OX40 (human, UniProt P43489 29-214, limits assumed).
T1 construct: The construct used in the Biacore assay is not described; also called OX40R; OX40 receptor
T1 sequence (looked up): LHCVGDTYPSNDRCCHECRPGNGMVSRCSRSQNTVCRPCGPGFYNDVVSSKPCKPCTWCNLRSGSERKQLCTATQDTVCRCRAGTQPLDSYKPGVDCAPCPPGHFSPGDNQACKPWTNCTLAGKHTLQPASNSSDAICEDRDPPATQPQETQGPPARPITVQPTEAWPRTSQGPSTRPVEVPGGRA
As to the kind of experiment: SPR (Biacore), mean KD; Ab1 after 1 h at pH 11.2. On the technique in general: Surface plasmon resonance follows binding to a sensor surface in real time, without labels.

Test [2] has as its target T2, human FcγR3a (human, UniProt P08637 17-208, limits assumed).
T2 construct: The construct and allotype (V158/F158) used in the Biacore assay are not described; also called FcgR3a
As to the kind of experiment: SPR (Biacore), mean KD; Ab1 after 1 h at pH 11.2.

Test [3] deals with T1, human OX40. In words: SPR (Biacore), mean KD; Ab1 after 2 h at pH 11.2.
The target in test [4] is T2, human FcγR3a. In words: SPR (Biacore), mean KD; Ab1 after 2 h at pH 11.2.
In test [5] the target is T1, human OX40. As to the kind of experiment: SPR (Biacore), mean KD; Ab1 brought to pH 11.2 and neutralized at once (t0).
For test [6], the target named is T2, human FcγR3a. Described as above.
Test [7] concerns the target T1, human OX40. In words: SPR (Biacore), mean KD; Ab1 protein A eluate without high pH treatment (reference).
Test [8] addresses T2, human FcγR3a. Described as above.
The target in test [9] is T3, human CD38 (human, UniProt P28907 43-300, limits assumed).
T3 construct: also called hsCD38; cluster of differentiation 38
As to the kind of experiment: binding affinity assay; sample after S/D treatment.

The target of test [10] is T3, human CD38. In words: binding affinity assay; sample after 0.8M Arg, pH 4.0.
Test [11] has as its target T3, human CD38. In words: binding affinity assay; sample after 0.8M Arg, pH 5.5.
Test [12] addresses T3, human CD38. As to the kind of experiment: binding affinity assay; reference sample, no treatment.
In test [13] the target is T3, human CD38. In words: binding affinity assay; sample after high pH treatment.
The target in test [14] is T3, human CD38. As to the kind of experiment: surface plasmon resonance; mean KD; high pH hold time 0 h.
Test [15] concerns the target T3, human CD38. As to the kind of experiment: surface plasmon resonance; mean KD; high pH hold time 1 h.
For test [16], the target named is T3, human CD38. In words: surface plasmon resonance; mean KD; high pH hold time 2 h.
Test [17] has as its target T3, human CD38. In words: binding affinity assay; sample after S/D treatment, against RS.
The target in test [18] is T3, human CD38. In words: binding affinity assay; sample after 0.8M Arg, pH 4.0, against RS.
The target of test [19] is T3, human CD38. As to the kind of experiment: binding affinity assay; sample after 0.8M Arg, pH 5.5, against RS.
The target of test [20] is T3, human CD38. In words: binding affinity assay; sample after high pH treatment, against RS.
The target in test [21] is T3, human CD38. In words: surface plasmon resonance; mean KD; PA eluate without high pH treatment.
Test [22] addresses CD3ε on Jurkat-NFAT responder cells (UniProt P07766 23-207). In words: cell-based or functional assay.
The target of test [23] is EGFR on SK-BR-3 target cells (UniProt P00533 25-1210, limits assumed). In words: cell-based or functional assay.
Test [24] deals with T4, Human EGFR-his (human, UniProt P00533 25-645).
T4 construct: Soluble his-tagged antigen injected as analyte in SPR; also called hsEGFR; not shown: his tag
In words: SPR, BEAT®3 captured on Protein G chip, EGFR-his as analyte; sample held at pH 11.2 for 0 h.

Test [25] concerns the target T4, Human EGFR-his. In words: SPR, BEAT®3 captured on Protein G chip, EGFR-his as analyte; sample held at pH 11.2 for 2 h.
In test [26] the target is T4, Human EGFR-his. As to the kind of experiment: SPR, BEAT®3 captured on Protein G chip, EGFR-his as analyte; sample held at pH 11.2 for 4 h.
Test [27] deals with T4, Human EGFR-his. As to the kind of experiment: SPR, BEAT®3 captured on Protein G chip, EGFR-his as analyte; sample held at pH 11.2 for 24 h.
Test [28] has as its target T4, Human EGFR-his. In words: SPR, BEAT®3 sample captured on Protein G chip, EGFR-his as analyte; mean of 4 reference replicates.
Test [29] concerns the target T4, Human EGFR-his. In words: SPR, BEAT®3 captured on Protein G chip, EGFR-his as analyte; sample held at pH 11.2 for 0 h; mean of 2.
Test [30] deals with T4, Human EGFR-his. In words: SPR, BEAT®3 captured on Protein G chip, EGFR-his as analyte; sample held at pH 11.2 for 2 h; mean of 2.
Test [31] has as its target T4, Human EGFR-his. As to the kind of experiment: SPR, BEAT®3 captured on Protein G chip, EGFR-his as analyte; sample held at pH 11.2 for 4 h; mean of 2.
The target of test [32] is T4, Human EGFR-his. In words: SPR, BEAT®3 captured on Protein G chip, EGFR-his as analyte; sample held at pH 11.2 for 24 h; mean of 2.

Chain of CD3ε on Jurkat-NFAT responder cells (P07766 23-207): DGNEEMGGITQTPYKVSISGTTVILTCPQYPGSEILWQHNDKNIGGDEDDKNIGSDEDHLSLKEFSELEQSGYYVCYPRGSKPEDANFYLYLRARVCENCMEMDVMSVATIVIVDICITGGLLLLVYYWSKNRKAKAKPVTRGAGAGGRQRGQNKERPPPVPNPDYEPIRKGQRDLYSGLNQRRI
T2 sequence (P08637 17-208 limits assumed): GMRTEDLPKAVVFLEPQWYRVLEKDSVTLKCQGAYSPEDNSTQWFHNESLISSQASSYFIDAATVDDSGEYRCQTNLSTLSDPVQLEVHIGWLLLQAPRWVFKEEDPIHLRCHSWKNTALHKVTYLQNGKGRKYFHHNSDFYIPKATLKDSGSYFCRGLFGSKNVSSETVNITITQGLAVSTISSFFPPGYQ

B1: Ab1 (antibody, human IgG1, kappa)
chain 1: not shown
chain 2: EIVLTQSPATLSLSPGERATLSCRASSSVSYMHWYQQKPGQAPRPWIYATSNRATGIPARFSGSGSGTDYTLTISSLEPEDFAVYYCQQWSSNPWTFGQGTKVEIKRTVAAPSVFIFPPSDEQLKSGTASVVCLLNNFYPREAKVQWKVDNALQSGNSQESVTEQDSKDSTYSLSSTLTLSKADYEKHKVYACEVTHQGLSSPVTKSFNRGEC
notes: The samples PA eluate, t0, t1 and t2 are the same antibody before and after incubation at pH 11.2 for 0, 1 and 2 h; also called humanized IgG1; PA eluate
B1: the Kd (in general, the constant that tells how readily two partners part at equilibrium) in test [1] was 207 nM; in test [2] it was 744 nM; in test [3], 224 nM; in test [4] it was 638 nM; in [5] it was 229 nM; in test [6], 760 nM. The Kd in [7] was 198 nM; in [8], 689 nM.

B2: BEAT®2 (bispecific antibody, human IgG1, kappa, L234A L235A)
chain 1: not shown
chain 2: QVTLKESGPTLVKPTQTLTLTCTFSGLSLSTSGKGVGWIRQPPGKALEWLAHIWWDDDKRYNPALKSRLTITKDTSKNQVVLTMTNMDPVDTATYYCARIELGRSYVMDYWGQGTLVTVSSASTKGPSVFPLAPSSKSTSGGTAALGCLVKDYFPEPVTVSWNSGALTSGVHTFPAVLQSSGLYSLSSVVTVPSSSLGTQTYICNVNHKPSNTKVDKKVEPKSCDKTHTCPPCPAPEAAGGPSVFLFPPKPKDTLMISRTPEVTCVVVDVSHEDPEVQFKWYVDGVEVHNAKTKPREEQYNSTFRVVSVLTVLHQDWLNGKEYKCKVSNKALPAPIEKTISKTKGQPREPAVYTLPPSREEMTKNQVKLVCLVTGFYPSDIAVEWESSGQPENNYYTTPPMLDSDGSFSLVSWLNVDKSRWQQGNIFSCSVMHEALHNRFTQKSLSLSPG
chain 3: not shown
As for B2, the Kd in [9] is 0.341 nM; in [10], 0.507 nM; in test [11] it was 0.439 nM; in test [12], 0.442 nM; in test [13] it was 0.467 nM; in [14], 0.504 nM. In addition, the Kd in [15] came to 0.547 nM; in [16], 0.485 nM; in test [21], 0.483 nM. The koff – broadly, the rate constant with which the complex falls apart – worked out at 0.000376 s⁻¹ in [9]; 0.000521 s⁻¹ in [10]; 0.000459 s⁻¹ in test [11]; 0.000457 s⁻¹ in test [12]; 0.000483 s⁻¹ in test [13]. Also, the kon (usually a measure of how fast the partners come together) in test [9] was determined as 1.11e+06 M⁻¹ s⁻¹; in [10], 1.03e+06 M⁻¹ s⁻¹; in test [11] it was 1.05e+06 M⁻¹ s⁻¹; in test [12], 1.03e+06 M⁻¹ s⁻¹; in test [13], 1.04e+06 M⁻¹ s⁻¹. Besides, the “% deviation EC50” value is 0% in test [12]; -15.4% in test [17]; 3.5% in test [18]; 0.7% in test [19]; 1.7% in test [20].

B3: BEAT®3 (bispecific antibody, human IgG1, kappa, L234A L235A)
chain 1: EVQLVESGGGLVQPGGSLRLSCAASGFTFNTYAMNWVRQAPGKGLEWVARIRSKYNNYATYYADSVKSRFTISRDDSKNTLYLQMNSLRAEDTAVYYCVRHGNFGNSYVSYFAYWGQGTTVTVSSGGGGSGGGGSGGGGSEIVVTQSPATLSVSPGERATLSCRSSTGAVTESNYANWVQEKPGQAFRGLIGGANKRAPGVPARFSGSLSGDEATLTISSLQSEDFAVYYCALFYSNTWVFGQGTKLEIKGGGGTQVQLQESGPGLVKPSETLSLTCTVSGGSVSSGDYYWTWIRQSPGKGLEWIGHIYYSGNTNYNPSLKSRLTISIDTSKTQFSLKLSSVTAADTAIYYCVRDRVTGAFDIWGQGTMVTVSSASTKGPSVFPLAPSSKSTSGGTAALGCLVKDYFPEPVTVSWNSGALTSGVHTFPAVLQSSGLYSLSSVVTVPSSSLGTQTYICNVNHKPSNTKVDKKVEPKSCDKTHTCPPCPAPEAAGGPSVFLFPPKPKDTLMISRTPEVTCVVVDVSHEDPEVQFKWYVDGVEVHNAKTKPREEQYNSTFRVVSVLTVLHQDWLNGKEYKCKVSNKALPAPIEKTISKTKGQPREPAVYTLPPSREEMTKNQVKLVCLVTGFYPSDIAVEWESSGQPENNYYTTPPMLDSDGSFSLVSWLNVDKSRWQQGNIFSCSVMHEALHNRFTQKSLSLSPG
chain 2: not shown
chain 3: DKTHTCPPCPAPEAAGGPSVFLFPPKPKDTLMISRTPEVTCVVVDVSHEDPEVKFNWYVDGVEVHNAKTKPREEQYNSTYRVVSVLTVLHQDWLNGKEYKCKVSNKALPAPIEKTISKAKGQPREPEVATFPPSRDELTKNQVTLVCLVTGFYPSDIAVEWESNGQPENNYKTDPPLLESDGSFALSSRLRVDKSRWQQGNVFSCSVMHEALHNHYTQKSLSLSPG
As to B3, the “Relative potency (%) (Jurkat-NFAT luciferase reporter, EC50reference/EC50sample x 100, reference High pH t0)” value in [22] is 97% and 85% and 67%; in [23], 97% and 85% and 67%. Also, the “Relative KD R1” value is 0.988 ratio to reference in [24], 1.02 ratio to reference in [25], 1.11 ratio to reference in test [26] and 1.17 ratio to reference in test [27]. Moreover, the “Average rel KD” value in test [28] was 1 ratio to reference; in test [29], 0.98 ratio to reference; in [30], 1.02 ratio to reference; in test [31] it was 1.09 ratio to reference; in [32] it was 1.15 ratio to reference.
